Test results: article PMC7486931

Key:
[1] = target: T1, VtlR (rVtlR) (Agrobacterium tumefaciens C58) (UniProt A9CI74); test: competition
T1 sequence: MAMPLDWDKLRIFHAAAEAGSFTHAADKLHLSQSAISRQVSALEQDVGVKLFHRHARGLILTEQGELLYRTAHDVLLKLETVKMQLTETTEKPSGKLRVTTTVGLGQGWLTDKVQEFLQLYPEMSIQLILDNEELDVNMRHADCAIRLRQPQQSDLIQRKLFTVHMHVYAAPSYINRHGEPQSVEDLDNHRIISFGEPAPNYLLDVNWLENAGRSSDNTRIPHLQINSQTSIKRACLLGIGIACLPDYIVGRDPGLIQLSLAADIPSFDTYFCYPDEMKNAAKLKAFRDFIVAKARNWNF

[2] = target: T1, VtlR (rVtlR) (Agrobacterium tumefaciens C58); test: EMSA

Row | Sequence | binding [1] | binding [2]
1 | GCCGTGGGCAAGCGTGACAGCTAACTAAAATATGGGAGTGGCAAGAATGCAAAACAAGGTTGCATCATGCGATATTTCGCCAATTTGGAGAAAATTCTTGCGGGTAAAAAAAGAGGGCCGCCG (double strand) [PabcR2] | no binding | –
2 | GAACTGGGAGGAAAAGCCACCGTGTGCATCAACTGAGAGCTATTTGGTGTTTTTTTGTGCACGAAACAACTCTTTTTTGTGCAGGTCAGGCATGCGTCGCACGCAGCCCTCGATATTTCCGGTATATTTTATGTGCAAAGCTGAAGAAGGGCGCCTGCGCGCCCCTCTTGCTTCTACCTTTACAAGGCTTTGAATTTTAAAGATTATCTTTCGACGTCGATTATTTTTACGTCAGAAGTTCCAGTTCCGC (double strand) [PabcR1] | – | binds
